# Source: patent US20230242592A1, “IDENTIFICATION OF […] PEPTIDES AND USES THEREOF” (priority 2020, published 2023)
# pIC50, pKd: −log10 of the molar value.
# Key:
# [1] = test system: SARS-CoV-2 spike protein pseudotyped lentivirus; experiment: SARS-CoV-2 spike pseudotyped lentivirus infection of ACE2-HEK293 cells (luciferase); type: cell-based; conditions: 0.33 uM
# SARS-CoV-2 spike RBD = SARS-CoV-2 spike RBD (Severe acute respiratory syndrome coronavirus 2, UniProt P0DTC2)
# [2] = target: interaction between RBD and the neutralizing antibody (Severe acute respiratory syndrome coronavirus 2, UniProt P0DTC2); conditions: read-out: IC50 of inhibiting interaction between RBD and the neutralizing antibody
# ACE2-HEK293 cells = experiment: Trypan blue toxicity in ACE2-HEK293 cells in the presence of virus; conditions: different concentrations; viability ca. 50%
substance,measurement,setting,value
ACE2,inhibition of pseudotyped virus infection,[1],virtually complete inhibition
same,"RMax, binding to RBD",SARS-CoV-2 spike RBD,0.5785 ± 0.01557
same,pKd,SARS-CoV-2 spike RBD; read-out: dissociation constant / binding affinity with RBD,~8.52
same,pIC50,[2],7.46 to 7.52
same,change in cell viability in the presence of virus,ACE2-HEK293 cells,did not result in statistically significant changes in cell viability
